Experimental data: the supplement of paper PMC10567573
± gives the standard deviation.

Test: protein stability index of a GFP-peptide fusion (GPS, HEK-293T) (PSI 1-6); higher = more stable
[1] = treatment: DMSO, c terminus: a fixed tail appended
[2] = treatment: MLN4924 1 uM, 8 h, c terminus: a fixed tail appended
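Further: 24-mer peptide tiles fused after GFP, lentivirally expressed, FACS-sorted into six equal bins by GFP/DsRed ratio, decoded by Illumina sequencing, PSI is the read-weighted mean bin number.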

Sequence | protein stability index [1] | protein stability index [2] | protein stability index (treatment: DMSO, c terminus: native) | protein stability index (treatment: MLN4924 1 uM, 8 h, c terminus: native)
RTSLQYGIMCLKRLNYDRKELEKR [PPFIA4] | 2.88 ± 0.45 | 2.83 ± 0.29 | – | –
RVGQLQEALNERHSIINALKAKLQ [LRRC45] | 2.45 ± 0.43 | 2.46 ± 0.3 | – | –
RVQKTSKELEDMNQKLFDLRGKFK [TNNI2] | 3.94 ± 0.25 | 4.03 ± 0.3 | – | –
RVVHWYFKLLDKNSSGDIGKKEIK [SMOC2] | 2.46 ± 0.97 | 2.41 ± 0.4 | – | –
RWFRSVDWEAVPQRKLKPPIVPKI [PRKX] | 2.33 ± 0.26 | 2.44 ± 0.29 | – | –
RWSPAQEESFRQMVVIHKEIPTGK [ZNF232] | 3.87 ± 0.42 | 3.99 ± 0.17 | – | –
RYRGLPAPGPSPADKKRSGKKKIS [WAS] | 4.76 ± 0.3 | 4.71 ± 0.21 | – | –
SAHFTSGPLVPRLAGMANHGSPQL [TBX5] | 3.35 ± 0.21 | 3.5 ± 0.13 | – | –
SALEDQGSNPSSSNSSQDSLHKGA [PPFIA4] | 5.48 ± 0.14 | 5.49 ± 0.23 | – | –
SALERLETKLHLLRQEMVNLRATD [LURAP1L] | 2.73 ± 0.22 | 2.79 ± 0.58 | – | –
SALPFITYLENKGHRYPCFFNTLH [POP5] | 2.34 ± 0.46 | 2.19 ± 0.42 | – | –
SALTEGAKEEGGEEVAKAVLEQEE [EPB41L3] | 5.63 ± 0.3 | 5.54 ± 0.41 | – | –
SANFHSLDDIYYFGGQNAHNQIAI [FUT8] | 2.4 ± 0.72 | 2.3 ± 0.24 | – | –
SASRKSAEQLRIELNAEKFKNSLL [WEE1] | 3.2 ± 0.3 | 3.29 ± 0.38 | – | –
SASSDEPYARIQQSRRQCHAEEDQ [SMIM2] | 5.49 ± 0.17 | 5.63 ± 0.2 | – | –
SAVAMYMLYEKQKQQNVAHCMLVS [ZBED1] | 2.92 ± 0.54 | 2.74 ± 0.53 | – | –
SAVVQLYAADRNCMWSKKCSGVAC [WASL] | 2.36 ± 0.23 | 2.41 ± 0.42 | – | –
SCIMENGHQPGTGPGDGPPEIAQN [SMTNL2] | 4.95 ± 0.28 | 4.99 ± 0.074 | – | –
SCSSEDNLSLVCLPRSEDDDCDDD [DRICH1] | 5.59 ± 0.17 | 5.66 ± 0.15 | – | –
SDELSWIIELLEKDGMAFQEALDP [ELF3] | 2.62 ± 0.34 | 3.02 ± 0.26 | – | –
SDLLDEKEIAKNLIQPINHTTLQC [FEM1C] | 3.83 ± 0.25 | 4.03 ± 0.39 | – | –
SDLLSEFKKHDADKVGLITLSDWA [PPEF2] | 3.35 ± 0.47 | 3.44 ± 0.27 | – | –
SDTIPYLKKFLYNFDNPWNFQNIP [MIA2] | 2.28 ± 0.84 | 2.5 ± 0.59 | – | –

Sequence | protein stability index [1] | protein stability index [2] | protein stability index (treatment: DMSO, c terminus: native) | protein stability index (treatment: MLN4924 1 uM, 8 h, c terminus: native)
SEARLSQRDLSPTAEDAELSDFEE [FCHSD1] | 5.44 ± 0.38 | 5.53 ± 0.39 | – | –
SEEAVREVHRLIEGKAPIISGVTK [TPPP] | 4.44 ± 0.29 | 4.72 ± 0.14 | – | –
SEQLVNFTGKAEMGGPFSYVYFFC [TMEM106C] | 2.69 ± 0.48 | 2.64 ± 0.45 | – | –
SERTDTAADGETTATEELEKTQDD [EPB41L3] | 5.63 ± 0.2 | 5.59 ± 0.21 | – | –
SFIIYLKNIVIADFVMSLTFPFKI [P2RY14] | 3.16 ± 0.29 | 3.22 ± 0.4 | – | –
SFQNMNSKRKAETWKKNRRQLAYS [STK38L] | 3.23 ± 0.33 | 3.33 ± 0.22 | – | –
SGRHILEDSCAELGESKEHMESRM [SDE2] | 4.64 ± 0.35 | 4.48 ± 0.23 | – | –
SGVGIDGEVLSYLELAQFHNAHQL [RHOBTB1] | 2.56 ± 0.33 | 2.67 ± 0.45 | – | –
SGVSDYDYLDLDKMSLYSEADSGY [TRIM9] | 4.14 ± 0.19 | 3.76 ± 0.46 | – | –
SHAAPGPSPDSWVPRPGTPQSPPS [FCHO1] | 5.12 ± 0.47 | 5.05 ± 0.62 | – | –
SIKMGKRNGLHLPEQVQNEIKSMK [NLN] | 4.02 ± 0.17 | 3.87 ± 0.55 | – | –
SILFGHENRVSTLRVSPDGTAFCS [GNB5] | 2.88 ± 0.41 | 3.02 ± 0.13 | – | –
SIRDANLYVSGLPKTMSQKEMEQL [ELAVL3] | 4.4 ± 0.061 | 4.27 ± 0.2 | – | –
SISDVKFSHSGRYIMTRDYLTVKV [PPP2R2B] | 2.37 ± 0.47 | 2.52 ± 0.57 | – | –
SISEKLSSTNFAMKRDVQEGQARC [C8orf76] | 4.41 ± 0.23 | 4.29 ± 0.22 | – | –
SIVILDNSPGAYRSHPDNAIPIKS [CTDNEP1] | 2.82 ± 0.27 | 2.91 ± 0.57 | – | –
SKPWHWPINYQGLRFSGVNDTDFR [POMT2] | 2.37 ± 0.17 | 2.52 ± 0.26 | – | –
SLALGDLIYVVIDLPINVFKLLAG [EDNRA] | 2.59 ± 1 | 3.28 ± 0.54 | – | –
SLCTHLIYAFAGMTNHQLSTTEWN [CHIT1] | 3.43 ± 0.33 | 3.27 ± 0.38 | – | –
SLFARAMQVLVTAISPGRFPEALD [ANKRD9] | 3.04 ± 0.31 | 2.8 ± 0.54 | – | –
SLGLSHSTDIGALMYPSYTFSGDV [MMP1] | 3.15 ± 0.4 | 3.19 ± 0.46 | – | –
SLGVPGSVGGVPGGTGSGDGNKIF [ZBTB22] | 4.38 ± 0.26 | 4.3 ± 0.22 | – | –
SLHDGSDGLDGISVGSYLDTLADD [LURAP1L] | 5 ± 0.17 | 4.93 ± 0.25 | – | –

Sequence | protein stability index [1] | protein stability index [2] | protein stability index (treatment: DMSO, c terminus: native) | protein stability index (treatment: MLN4924 1 uM, 8 h, c terminus: native)
SLIILHLSGATKKGTEKQTTSETQ [NETO1] | 2.35 ± 0.26 | 2.27 ± 0.56 | – | –
SLIRKHAQTFIALCATDFKFAMYP [CCND2] | 3.01 ± 0.18 | 2.97 ± 0.51 | – | –
SLRQKQPERLCSGPGIVGNVLVDP [GMPPB] | 3.65 ± 0.2 | 3.46 ± 0.15 | – | –
SLTVPLLGAMMLLESPIDPQPLSF [APMAP] | 2.46 ± 0.56 | 2.81 ± 0.51 | – | –
SMVDLTSVTLEDVTPKKSPPPKTN [FAN1] | 5.06 ± 0.12 | 4.9 ± 0.27 | – | –
SNHSAQDSAVENLLLLSKAKLVPS [IKZF1] | 3.81 ± 0.22 | 3.95 ± 0.32 | – | –
SNIKFCSFHPLQYIGFYGKETTNT [PDS5B] | 2.1 ± 0.47 | 2.29 ± 0.16 | – | –
SNKVQDSAPVETPRGKPPLNTRSQ [HMOX1] | 5.21 ± 0.38 | 5.26 ± 0.27 | – | –
SPESGLEVRDRMLLKITIPNAFIG [DVL3] | 2.3 ± 0.15 | 2.24 ± 0.34 | – | –
SPIKLSPTSPVYRGSSSGPSSPAR [MTUS2] | 4.34 ± 0.21 | 4.39 ± 0.2 | – | –
SPNTPQPVPEQSALCQGLYFHINQ [FAM104A] | 3 ± 0.15 | 3.16 ± 0.33 | – | –
SPPVDLFATASAAVPVSTSKPSSD [SNAP91] | 5.31 ± 0.12 | 5.33 ± 0.17 | – | –
SPSCPEEALAATWEQPWASEVFGP [PXN] | 3.62 ± 0.24 | 3.63 ± 0.14 | – | –
SPSYGRSRSRSRSRSRSRSRSNSR [SRSF1] | 5.39 ± 0.47 | 5.43 ± 0.26 | – | –
SRGGTRGWLPSHEGHLDDGGYTPD [RBMY1A1] | 4.73 ± 0.29 | 4.75 ± 0.24 | – | –
SRGLHAWEISWPLEQRGTHAVVGV [SPSB2] | 2.43 ± 0.4 | 2.17 ± 0.44 | – | –
SRHCPQLPPPCAALWCSGHLNGHA [ADAMTS4] | 2.48 ± 0.3 | 2.48 ± 0.21 | – | –
SRIKVLETSYQQREERLRRENEEL [FBF1] | 4.9 ± 0.18 | 5.07 ± 0.26 | – | –
SRKPSLKGNREDSARMSAGLPGPE [PLEKHN1] | 4.85 ± 0.35 | 4.87 ± 0.2 | – | –
SRLLIFPLYICCNFLYISPEKKN [GMCL1] | – | – | 2.97 ± 0.27 | 2.71 ± 0.43
SRRASESSLSSESSESSDAGLCMD [CDC25B] | 5.06 ± 0.39 | 5.33 ± 0.18 | – | –
SSAIEVIMLRSNESFTMDDMSWTC [VDR] | 2.6 ± 0.53 | 2.29 ± 0.38 | – | –
SSALHLSKGMSIFLDILRRADKND [NECAB1] | 2.29 ± 0.13 | 2.6 ± 0.31 | – | –

Sequence | protein stability index [1] | protein stability index [2] | protein stability index (treatment: DMSO, c terminus: native) | protein stability index (treatment: MLN4924 1 uM, 8 h, c terminus: native)
SSEASQLEDAAGGDSASEEKSGSA [FBXO34] | 5.61 ± 0.17 | 5.55 ± 0.29 | – | –
SSELETTSFFDSDEDDSTSRFSSS [DVL3] | 5.4 ± 0.32 | 5.51 ± 0.31 | – | –
SSESSDAGLCMDSPSPMDPHMAEQ [CDC25B] | 5.675 ± 0.013 | 5.21 ± 0.2 | – | –
SSHLQSSKAGPTRIFTSNTHSSVV [KLHL13] | 3.52 ± 0.22 | 3.52 ± 0.2 | – | –
SSISSSARRTTRSEPIRRAGKSGT [MAP2] | 4.89 ± 0.26 | 5.09 ± 0.16 | – | –
SSPKFREEAAFPGRRVNAKMPVYS [ELOA2] | 3.3 ± 0.17 | 3.48 ± 0.14 | – | –
SSQSSLAQEEEEEDQGRTRKRKQS [DDIT3] | 5.55 ± 0.32 | 5.44 ± 0.09 | – | –
SSSSSSSSSSSASSSASSSFSEEG [NFE2L1] | 5.43 ± 0.33 | 5.38 ± 0.23 | – | –
SSTTILVQWKEPEEPNGQIQGYRV [PTPRD] | 2.91 ± 0.32 | 2.71 ± 0.46 | – | –
STCFERPCFKWYTSPWSECTKTCG [ADAMTSL2] | 2.47 ± 0.64 | 2.75 ± 0.57 | – | –
STSDSDLTCDSSTSSSDDDEEVSG [C18orf25] | 5.22 ± 0.21 | 5.28 ± 0.13 | – | –
STSFLPELSSVHPPHYFFTYRIRI [FBXO3] | 2.66 ± 0.33 | 2.85 ± 0.48 | – | –
SVDWLSQSSCSGPTHTPRPADFSL [VENTX] | 3.21 ± 0.25 | 3.28 ± 0.15 | – | –
SVVCRELGFGSAKEAVTGSRLGQG [LOXL2] | 3.69 ± 0.41 | 4.12 ± 0.44 | – | –
SWGIAGETELALVKESGERKVTDS [DLC1] | 5.14 ± 0.3 | 5.46 ± 0.19 | – | –
SYRPAYDQGGPVEILPFLYLGSAY [DUSP5] | 2.08 ± 0.33 | 2.18 ± 0.32 | – | –
SYRSFHSGGYGQDALGMDPMMEHE [CTNNB1] | 4.29 ± 0.2 | 4.21 ± 0.25 | – | –
TAAPPPPPPSRPSVAVPPPPPNRM [WASL] | 4.82 ± 0.3 | 4.87 ± 0.2 | – | –
TALHIACYNGQDAVVNELIDYGAN [ANKRD44] | 2.69 ± 0.27 | 2.86 ± 0.24 | – | –
TARVIIPLLKDEGFAVKALWGRTQ [GFOD1] | 2.08 ± 0.32 | 2.27 ± 0.35 | – | –
